Source: article PMC8327350, “Interaction between the transmembrane domains of neurotrophin receptors p75 and TrkA mediates their reciprocal activation” (The Journal of Biological Chemistry, 2021)
No end group written: not given here.

B1: p75-TM-C257A (C257A point mutant form of p75TM) (domain or fragment, human)
chain: MTRGTTDNLIPVYASILAAVVVGLVAYIAFKRWNSSKQNKQ
modifications: also: 15N-labeled in one set, unlabeled in the other
notes: methionine printed before T245; Seen as monomer, noncovalent homodimer and heterodimer with TrkA-TM in the NMR samples; also called p75-C257A; p75-C257A-TM; source: cell-free expression (E. coli Rosetta(DE3)pLysS S30 extract), in DPC micelles

How the values were obtained:
[1] = target: full-length TrkA tagged with mTurquoise (UniProt P04629)
[2] = target: the molecule itself; test: NMR cross-correlated relaxation (rotational correlation time, hydrodynamic radius); cross-correlated relaxation rates of p75-TM-C257A amide signals (I259, V263, G266, A269, Y270) of monomer, homodimer and heterodimer in DPC micelles, 45 °C
[3] = target: the molecule itself; test: NMR titration; unlabeled p75-TM-C257A added incrementally to 0.5 mM 15N-labeled TrkA-TM; DPC micelles, LPR 80, pH 5.9, 318 K, 20 mM sodium phosphate
[4] = target: B1; test: NMR cross-correlated relaxation (rotational correlation time, hydrodynamic radius); cross-correlated relaxation rates of p75-TM-C257A amide signals (I259, V263, G266, A269, Y270) of monomer, homodimer and heterodimer in DPC micelles, 45 °C; conditions: both partners purified

Chain of full-length TrkA tagged with mTurquoise (P04629 33-796): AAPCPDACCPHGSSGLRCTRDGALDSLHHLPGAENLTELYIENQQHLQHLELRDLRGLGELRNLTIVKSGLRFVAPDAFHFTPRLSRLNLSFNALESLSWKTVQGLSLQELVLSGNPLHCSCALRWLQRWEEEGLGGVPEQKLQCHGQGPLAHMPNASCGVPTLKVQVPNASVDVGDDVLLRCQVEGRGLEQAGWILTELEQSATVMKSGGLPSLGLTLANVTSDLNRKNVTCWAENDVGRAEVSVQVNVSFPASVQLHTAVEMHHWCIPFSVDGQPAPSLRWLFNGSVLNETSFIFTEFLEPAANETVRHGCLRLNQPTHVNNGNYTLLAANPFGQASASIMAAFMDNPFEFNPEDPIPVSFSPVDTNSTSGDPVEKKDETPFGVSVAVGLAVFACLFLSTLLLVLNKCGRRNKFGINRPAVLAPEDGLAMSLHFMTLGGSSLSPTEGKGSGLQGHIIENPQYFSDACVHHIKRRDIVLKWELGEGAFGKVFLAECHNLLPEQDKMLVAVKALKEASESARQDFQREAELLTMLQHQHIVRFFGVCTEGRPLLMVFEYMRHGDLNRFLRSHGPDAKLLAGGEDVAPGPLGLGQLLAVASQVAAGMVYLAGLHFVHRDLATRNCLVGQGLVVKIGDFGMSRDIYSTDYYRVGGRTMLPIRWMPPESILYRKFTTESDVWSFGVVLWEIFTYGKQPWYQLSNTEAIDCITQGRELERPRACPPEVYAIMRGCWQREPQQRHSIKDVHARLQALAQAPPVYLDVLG

Molecule: full-length p75 tagged with enhanced YFP (from UniProt P08138 29-427) (receptor)
- EC50 of NGF for TrkA phosphorylation (activation loop, Western blot) in HeLa cells coexpressing TrkA and p75, NGF 0 to 100 ng/ml [1]: 299 pM

Molecule: p75-TNFR (p75 with its TMD swapped with the one from the TNFR) (from UniProt P08138 29-427) (receptor)
- EC50 of NGF for TrkA phosphorylation (activation loop, Western blot) in HeLa cells coexpressing TrkA and p75-TNFR, NGF 0 to 100 ng/ml [1]: 2.7 nM

Molecule: p75–AGA mutation (triple mutation A262,G266,A269 to Ile) (from UniProt P08138 29-427) (receptor)
- EC50 of NGF for TrkA phosphorylation (activation loop, Western blot) in HeLa cells coexpressing TrkA and p75–AGA, NGF 0 to 100 ng/ml [1]: 1.7 nM

Molecule: B1
- stoichiometry N [2]: 2 chains in the oligomer (homodimer)

B2: human TrkA-TM (domain or fragment)
chain: MKKDETPFGVSVAVGLAVFACLFLSTLLLVLNKAGRRNK
modifications: also: 15N-labeled in one set, unlabeled in the other
notes: methionine printed before K410; human TrkA transmembrane domain, K410 to K447; the A at 442 is printed underlined and not explained; also called TrkA-TM-wt; TrkA-TMD; source: cell-free expression (E. coli Rosetta(DE3)pLysS S30 extract), in DPC micelles
- binding result [3]: binds
- stoichiometry N [4]: 1 TrkA-TM per p75-TM-C257A (heterodimer)
